The target in data set [1] is T1, BVU2420 (Phocaeicola vulgatus, UniProt A6L315).
T1 sequence (A6L315 1-135): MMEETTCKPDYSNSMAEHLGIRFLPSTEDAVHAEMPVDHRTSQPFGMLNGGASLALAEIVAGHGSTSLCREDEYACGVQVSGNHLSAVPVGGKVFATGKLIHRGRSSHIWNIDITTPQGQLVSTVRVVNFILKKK
Briefly: DTNB-coupled thioesterase assay, […] nm. Format: biochemical. As to conditions: pH 7.5, 25 °C, 50 mM HEPES, 0.15 M KCl, 1 mM DTNB.

Data set [2] has as its target T2, BF1314 (Bacteroides fragilis, UniProt Q5LFS7).
T2 sequence (Q5LFS7 1-410): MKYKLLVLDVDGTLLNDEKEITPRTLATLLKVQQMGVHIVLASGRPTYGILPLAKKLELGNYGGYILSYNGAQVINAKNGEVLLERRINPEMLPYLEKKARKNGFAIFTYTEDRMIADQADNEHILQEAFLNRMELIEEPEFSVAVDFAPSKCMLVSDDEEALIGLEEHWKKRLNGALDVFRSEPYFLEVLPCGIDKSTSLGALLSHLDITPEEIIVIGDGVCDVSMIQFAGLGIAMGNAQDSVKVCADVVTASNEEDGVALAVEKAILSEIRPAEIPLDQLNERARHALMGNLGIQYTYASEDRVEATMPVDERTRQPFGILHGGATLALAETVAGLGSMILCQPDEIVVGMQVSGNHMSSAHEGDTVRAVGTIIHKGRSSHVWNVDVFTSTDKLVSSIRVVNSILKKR
Briefly: DTNB-coupled thioesterase assay, […] nm. Format: biochemical. As to conditions: pH 7.5, 25 °C, 50 mM HEPES, 0.15 M KCl, 1 mM DTNB.

Data set [3] concerns the target T3, PG1653 (Porphyromonas gingivalis, UniProt Q7MU91).
T3 sequence (Q7MU91 1-407): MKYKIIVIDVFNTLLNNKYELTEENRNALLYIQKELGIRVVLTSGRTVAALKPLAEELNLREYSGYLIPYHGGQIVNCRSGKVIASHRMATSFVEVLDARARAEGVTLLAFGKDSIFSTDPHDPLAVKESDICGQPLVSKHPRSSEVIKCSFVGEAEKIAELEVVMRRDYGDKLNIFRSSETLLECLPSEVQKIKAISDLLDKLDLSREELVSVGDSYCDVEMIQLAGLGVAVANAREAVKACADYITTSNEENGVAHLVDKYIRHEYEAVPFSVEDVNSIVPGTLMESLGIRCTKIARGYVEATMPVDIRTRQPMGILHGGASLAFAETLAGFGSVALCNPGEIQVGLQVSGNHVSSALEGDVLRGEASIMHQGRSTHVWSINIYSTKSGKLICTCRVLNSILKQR
Briefly: DTNB-coupled thioesterase assay, […] nm. Format: biochemical. As to conditions: pH 7.5, 25 °C, 50 mM HEPES, 0.15 M KCl, 1 mM DTNB.

Substrate in data set [4]: CC(C)(COP(=O)(O)OP(=O)(O)OC[C@H]1O[C@@H](n2cnc3c(N)ncnc32)[C@H](O)[C@@H]1OP(=O)(O)O)[C@@H](O)C(=O)NCCC(=O)NCCSC(=O)c1ccccc1
The data set is described as follows: purified protein. Format: biochemical, Porphyromonas gingivalis. The following applies: pH 7.5, 25 °C, 50 mM HEPES, 0.15 M KCl, 1 mM DTNB.

Substrate in data set [5]: CC(C)(COP(=O)(O)OP(=O)(O)OC[C@H]1O[C@@H](n2cnc3c(N)ncnc32)[C@H](O)[C@@H]1OP(=O)(O)O)[C@@H](O)C(=O)NCCC(=O)NCCSC(=O)c1cc(O)c2ccccc2c1O
Briefly: purified protein. Format: biochemical, Porphyromonas gingivalis. The following applies: pH 7.5, 25 °C, 50 mM HEPES, 0.15 M KCl, 1 mM DTNB.

Substrate in data set [6]: CC(C)(COP(=O)(O)OP(=O)(O)OC[C@H]1O[C@@H](n2cnc3c(N)ncnc32)[C@H](O)[C@@H]1OP(=O)(O)O)[C@@H](O)C(=O)NCCC(=O)NCCSC(=O)c1ccc(O)cc1
The data set is described as follows: purified protein. Format: biochemical, Porphyromonas gingivalis. The following applies: pH 7.5, 25 °C, 50 mM HEPES, 0.15 M KCl, 1 mM DTNB.

Substrate in data set [7]: CC(C)(COP(=O)(O)OP(=O)(O)OC[C@H]1O[C@@H](n2cnc3c(N)ncnc32)[C@H](O)[C@@H]1OP(=O)(O)O)[C@@H](O)C(=O)NCCC(=O)NCCSC(=O)Cc1cccc(O)c1
The data set is described as follows: purified protein. Format: biochemical, Porphyromonas gingivalis. As to conditions: pH 7.5, 25 °C, 50 mM HEPES, 0.15 M KCl, 1 mM DTNB.

Substrate in data set [8]: CC(C)(COP(=O)(O)OP(=O)(O)OC[C@H]1O[C@@H](n2cnc3c(N)ncnc32)[C@H](O)[C@@H]1OP(=O)(O)O)[C@@H](O)C(=O)NCCC(=O)NCCSC(=O)c1ccccc1
The data set is described as follows: purified protein. The following applies: pH 7.5, 25 °C, 50 mM HEPES, 0.15 M KCl, 1 mM DTNB. Format: biochemical, Phocaeicola vulgatus.

Substrate in data set [9]: CC(C)(COP(=O)(O)OP(=O)(O)OC[C@H]1O[C@@H](n2cnc3c(N)ncnc32)[C@H](O)[C@@H]1OP(=O)(O)O)[C@@H](O)C(=O)NCCC(=O)NCCSC(=O)c1cc(O)c2ccccc2c1O
Briefly: purified protein. Format: biochemical, Phocaeicola vulgatus. The following applies: pH 7.5, 25 °C, 50 mM HEPES, 0.15 M KCl, 1 mM DTNB.

Substrate in data set [10]: CC(C)(COP(=O)(O)OP(=O)(O)OC[C@H]1O[C@@H](n2cnc3c(N)ncnc32)[C@H](O)[C@@H]1OP(=O)(O)O)[C@@H](O)C(=O)NCCC(=O)NCCSC(=O)c1ccc(O)cc1
The data set is described as follows: purified protein. Format: biochemical, Phocaeicola vulgatus. The following applies: pH 7.5, 25 °C, 50 mM HEPES, 0.15 M KCl, 1 mM DTNB.

Substrate in data set [11]: CC(C)(COP(=O)(O)OP(=O)(O)OC[C@H]1O[C@@H](n2cnc3c(N)ncnc32)[C@H](O)[C@@H]1OP(=O)(O)O)[C@@H](O)C(=O)NCCC(=O)NCCSC(=O)Cc1cccc(O)c1
Briefly: purified protein. Format: biochemical, Phocaeicola vulgatus. As to conditions: pH 7.5, 25 °C, 50 mM HEPES, 0.15 M KCl, 1 mM DTNB.

Substrate in data set [12]: O=P(O)(O)OC[C@H](O)CO
The data set is described as follows: purified protein. As to conditions: pH 7.5, 25 °C, 1 mM MgCl2 (table; methods say 2 mM).

Substrate in data set [13]: O=P(O)(O)NP(=O)(O)O
The data set is described as follows: purified protein. As to conditions: pH 7.5, 25 °C, 1 mM MgCl2 (table; methods say 2 mM).

Substrate in data set [14]: CC(=O)OP(=O)(O)O
Briefly: purified protein. As to conditions: pH 7.5, 25 °C, 1 mM MgCl2 (table; methods say 2 mM).

Substrate in data set [15]: NC(=O)OP(=O)(O)O
The data set is described as follows: purified protein. The following applies: pH 7.5, 25 °C, 1 mM MgCl2 (table; methods say 2 mM).

Substrate in data set [16]: CC(C)(COP(=O)(O)OP(=O)(O)OC[C@H]1O[C@@H](n2cnc3c(N)ncnc32)[C@H](O)[C@@H]1OP(=O)(O)O)[C@@H](O)C(=O)NCCC(=O)NCCSC(=O)c1ccccc1
The data set is described as follows: purified protein. Format: biochemical, Bacteroides fragilis. As to conditions: pH 7.5, 25 °C, 50 mM HEPES, 0.15 M KCl, 1 mM DTNB.

Substrate in data set [17]: CC(C)(COP(=O)(O)OP(=O)(O)OC[C@H]1O[C@@H](n2cnc3c(N)ncnc32)[C@H](O)[C@@H]1OP(=O)(O)O)[C@@H](O)C(=O)NCCC(=O)NCCSC(=O)c1cc(O)c2ccccc2c1O
Briefly: purified protein. Format: biochemical, Bacteroides fragilis. As to conditions: pH 7.5, 25 °C, 50 mM HEPES, 0.15 M KCl, 1 mM DTNB.

Substrate in data set [18]: CC(C)(COP(=O)(O)OP(=O)(O)OC[C@H]1O[C@@H](n2cnc3c(N)ncnc32)[C@H](O)[C@@H]1OP(=O)(O)O)[C@@H](O)C(=O)NCCC(=O)NCCSC(=O)c1ccc(O)cc1
Briefly: purified protein. Format: biochemical, Bacteroides fragilis. As to conditions: pH 7.5, 25 °C, 50 mM HEPES, 0.15 M KCl, 1 mM DTNB.

Substrate in data set [19]: CC(C)(COP(=O)(O)OP(=O)(O)OC[C@H]1O[C@@H](n2cnc3c(N)ncnc32)[C@H](O)[C@@H]1OP(=O)(O)O)[C@@H](O)C(=O)NCCC(=O)NCCSC(=O)Cc1cccc(O)c1
The data set is described as follows: purified protein. Format: biochemical, Bacteroides fragilis. The following applies: pH 7.5, 25 °C, 50 mM HEPES, 0.15 M KCl, 1 mM DTNB.

Substrate in data set [20]: NC(=O)OP(=O)(O)O
Briefly: purified protein. As to conditions: pH 7.5, 25 °C, 1 mM MgCl2 (table; methods say 2 mM). Format: biochemical, Bacteroides fragilis.

On to napthoyl-CoA, for which the values for the Km in [1], in data set [2] and in data set [3] were 180 µM, 230 µM and 170 µM, respectively.

B1: PG1653 (Porphyromonas gingivalis W83) (protein)
chain: T3 sequence (Q7MU91 1-407)
Take B1: the Michaelis constant (Km) entry in data set [4] is “(5.8 ± 0.5) × 10^1 μM”; in data set [5] it was 4.0 ± 0.3 µM; in data set [6], “(8.0 ± 0.6) × 10^2 μM”; in [7], “(1.7 ± 0.3) × 10^2 μM”. Also, the kcat in [4] came out at 0.03 ± 0.001 s⁻¹; in [5], 10 ± 1 s⁻¹; in data set [6] it was 4.6 ± 0.1 s⁻¹; in data set [7] it was 0.31 ± 0.02 s⁻¹.

B2: BVU2420 (Phocaeicola vulgatus ATCC 8482) (protein)
chain: T1 sequence (A6L315 1-135)
Regarding B2, the Km entry is recorded as “(3.1 ± 0.4) × 10^1 μM” in data set [8], “(1.5 ± 0.1) × 10^1 μM” in data set [9], “(3.3 ± 0.2) × 10^1 μM” in data set [10] and “(8.1 ± 0.6) × 10^2 μM” in data set [11]. Besides, the kcat in data set [8] worked out at 0.028 ± 0.001 s⁻¹; in [9], 13 ± 1 s⁻¹; in [10], 1.2 ± 0.1 s⁻¹; in data set [11] it was 0.034 ± 0.001 s⁻¹.

B3: BF1314-HAD Domain (Bacteroides fragilis NCTC 9343) (protein)
chain: MKYKLLVLDVDGTLLNDEKEITPRTLATLLKVQQMGVHIVLASGRPTYGILPLAKKLELGNYGGYILSYNGAQVINAKNGEVLLERRINPEMLPYLEKKARKNGFAIFTYTEDRMIADQADNEHILQEAFLNRMELIEEPEFSVAVDFAPSKCMLVSDDEEALIGLEEHWKKRLNGALDVFRSEPYFLEVLPCGIDKSTSLGALLSHLDITPEEIIVIGDGVCDVSMIQFAGLGIAMGNAQDSVKVCADVVTASNEEDGVALAVEKAILSEIRPAEIPLDQLNERARHAL
With B3, the Km was found to be 63 ± 2 µM in data set [12], 7400 ± 500 µM in data set [13], 870 ± 60 µM in data set [14] and 970 ± 80 µM in [15]. Further, the kcat in data set [12] amounted to 0.011 ± 0.001 s⁻¹; in data set [13], 0.383 ± 0.0167 s⁻¹; in data set [14], 0.02 ± 0.00167 s⁻¹; in data set [15] it was 0.04167 ± 0.000333 s⁻¹. Besides, the kcat/Km in data set [12] amounted to 170 M⁻¹ s⁻¹; in data set [13], 51 M⁻¹ s⁻¹; in [14], 23 M⁻¹ s⁻¹; in [15], 42 M⁻¹ s⁻¹.

B4: BF1314 (Bacteroides fragilis NCTC 9343) (protein)
chain: T2 sequence (Q5LFS7 1-410)
As for B4, the Km entry in data set [16] was “(8.4 ± 0.8) × 10^1 μM”; in data set [17], 7.0 ± 0.5 µM; in data set [18], “(2.3 ± 0.2) × 10^2 μM”; in data set [19], “(4.6 ± 0.4) × 10^1 μM”; in [20], 440 ± 30 µM. In addition, the kcat in [16] was 0.024 ± 0.002 s⁻¹; in data set [17], 12 ± 1 s⁻¹; in [18], 1.1 ± 0.1 s⁻¹; in data set [19], 0.19 ± 0.01 s⁻¹; in data set [20] it was 0.0217 ± 0.00167 s⁻¹. Besides, the kcat/Km in data set [20] turned out to be 54 M⁻¹ s⁻¹.

These data come from article PMC3912074 (FEBS letters, 2013).
